From patent US20230193226A1, “BUTYRYLCHOLI[…] AN ENHANCED ABILITY TO HYDROLYZE ACYL GHRELIN” (priority 2014, published 2023)

Key:
BChE = biological target: T1, BChE (Mus musculus, UniProt Q03311, A228S/A357W/S256A/S316G/Y361G); test: Selective BChE inhibition by iso-OMPA in vector-treated mice; assay type: in vivo; conditions: AAV-mBChE mut mice, iso-OMPA 40 mg kg^-1, 6 hours fast
T1 construct: expressed in transfected cells; host or cells: C57bl/6 mice after AAV-mBChE mut gene transfer; activity measured in serum/plasma
Method: FIGS. 6A-6B. […] All mice were then fasted for 6 hours, and serum samples were collected to determine (6A) BChE activity versus the reference substrate (BTCh) and (6B) the levels of acyl ghrelin.

human acyl-ghrelin = test: Deacylation of human acyl ghrelin by purified human BChE; assay type: biochemical
Method: FIGS. 3A-3D. […] (3B) One ng of human acyl-ghrelin was treated with different amount of human BChE. After 20 hours of incubation, residual acyl ghrelin and desacyl ghrelin in each reaction were determined. (3C) One ng of human acyl ghrelin was treated with 10 µg of human BChE and % decrease in residual acyl ghrelin was measured as a function of time. […] The hydrolysis activities with butyrylthiocholine (BTCh) or acyl-ghrelin as substrates were determined by Ellman assay and acyl-ghrelin immunoassay, respectively. Data are normalized to the no inhibitor controls. All values are means ± SD, each with duplicate samples (n=3).
A sample of purified human BChE was obtained from Dr. O. Lockridge and assessed by gel electrophoresis (FIG. 3A).

human ghrelin = test: In vitro enzyme screening: ghrelin hydrolyzing activity of purified mutant BChE (ghrelin immunoassay); assay type: biochemical; conditions: purified enzyme from HEK293 supernatant
[1] = 1 ng human acyl-ghrelin, increasing amounts of human BChE, 20 hours

CC(C)NP(=O)(NC(C)C)OP(=O)(NC(C)C)NC(C)C [iso-OMPA]
BTCh hydrolysis activity of plasma (BChE): abolished
level of acyl ghrelin in plasma (BChE): equivalent to the level observed in AAV-Luc-treated control mice

B1: human BChE (protein, listed as Homo sapiens)
chain: MHSKVTIICIRFLFWFLLLCMLIGKSHTEDDIIIATKNGKVRGMNLTVFGGTVTAFLGIPYAQPPLGRLRFKKPQSLTKWSDIWNATKYANSCCQNIDQSFPGFHGSEMWNPNTDLSEDCLYLNVWIPAPKPKNATVLIWIYGGGFQTGTSSLHVYDGKFLARVERVIVVSMNYRVGALGFLALPGNPEAPGNMGLFDQQLALQWVQKNIAAFGGNPKSVTLFGESAGAASVSLHLLSPGSHSLFTRAILQSGSFNAPWAVTSLYEARNRTLNLAKLTGCSRENETEIIKCLRNKDPQEILLNEAFVVPYGTPLSVNFGPTVDGDFLTDMPDILLELGQFKKTQILVGVNKDEGTAFLVYGAPGFSKDNNSIITRKEFQEGLKIFFPGVSEFGKESILFHYTDWVDDQRPENYREALGDVVGDYNFICPALEFTKKFSEWGNNAFFYYFEHRSSKLPWPEWMGVMHGYEIEFVFGLPLERRDNYTKAEEILSRSIVKRWANFAKYGNPNETQNNSTSWPVFKSTEQKYLTLNTESTRIMTKLRAQQCRFWTSFFPKVLEMTGNIDEAEWEWKAGFHRWNNYMMDWKNQFNDYTSKKESCVGL
acyl ghrelin hydrolysis rate as a function of time (human acyl-ghrelin; 1 ng human acyl ghrelin, 10 µg human BChE): linear hydrolysis rate
amount of acyl ghrelin (human acyl-ghrelin; [1]): decrease in the amount of acyl ghrelin
amount of desacyl ghrelin (human acyl-ghrelin; [1]): increase in the amount of the breakdown product, desacyl ghrelin

B2: A199S/F227A/S287G/A328W/Y332G (protein)
chain: EDDIIIATKNGKVRGMNLTVFGGTVTAFLGIPYAQPPLGRLRFKKPQSLTKWSDIWNATKYANSCCQNIDQSFPGFHGSEMWNPNTDLSEDCLYLNVWIPAPKPKNATVLIWIYGGGFQTGTSSLHVYDGKFLARVERVIVVSMNYRVGALGFLALPGNPEAPGNMGLFDQQLALQWVQKNIAAFGGNPKSVTLFGESSGAASVSLHLLSPGSHSLFTRAILQSGSANAPWAVTSLYEARNRTLNLAKLTGCSRENETEIIKCLRNKDPQEILLNEAFVVPYGTPLGVNFGPTVDGDFLTDMPDILLELGQFKKTQILVGVNKDEGTWFLVGGAPGFSKDNNSIITRKEFQEGLKIFFPGVSEFGKESILFHYTDWVDDQRPENYREALGDVVGDYNFICPALEFTKKFSEWGNNAFFYYFEHRSSKLPWPEWMGVMHGYEIEFVFGLPLERRDNYTKAEEILSRSIVKRWANFAKYGNPNETQNNSTSWPVFKSTEQKYLTLNTESTRIMTKLRAQQCRFWTSFFPKVLEMTGNIDEAEWEWKAGFHRWNNYMMDWKNQFNDYTSKKESCVGL
ghrelin hydrolyzing activity in vitro (human ghrelin): modest activity, comparable to that of wild type human BChE

B3: A199S/S227A/S287G/A328W/Y332G (protein)
chain: EEDFIITTKTGRVRGLSMPVLGGTVTAFLGIPYAQPPLGSLRFKKPQPLNKWPDIHNATQYANSCYQNIDQAFPGFQGSEMWNPNTNLSEDCLYLNVWIPVPKPKNATVMVWIYGGGFQTGTSSLPVYDGKFLARVERVIVVSMNYRVGALGFLAFPGNPDAPGNMGLFDQQLALQWVQRNIAAFGGNPKSITIFGESSGAASVSLHLLCPQSYPLFTRAILESGSANAPWAVKHPEEARNRTLTLAKFTGCSKENEMEMIKCLRSKDPQEILRNERFVLPSDSILGINFGPTVDGDFLTDMPHTLLQLGKVKKAQILVGVNKDEGTWFLVGGAPGFSKDNDSLITRKEFQEGLNMYFPGVSRLGKEAVLFYYVDWLGEQSPEVYRDALDDVIGDYNIICPALEFTKKFAELENNAFFYFFEHRSSKLPWPEWMGVMHGYEIEFVFGLPLGRRVNYTRAEEIFSRSIMKTWANFAKYGHPNGTQGNSTMWPVFTSTEQKYLTLNTEKSKIYSKLRAPQCQFWRLFFPKVLEMTGDIDETEQEWKAGFHRWSNYMMDWQNQFNDYTSKKESCTAL
ghrelin hydrolyzing activity in vitro (human ghrelin): enhanced activity
ghrelin hydrolyzing activity relative to wild type mouse BChE (human ghrelin): at least 20 fold
